The data set can be described thus: protease stability score; higher = more stable; yeast display proteolysis, trypsin and chymotrypsin.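 Further: log10 excess protease needed over predicted unfolded state with 0 meaning unfolded.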
Sequence “DEKRYEELVKKAFDVIRNGNEEEMRKLGKPDVEYKYADKEFEGEEAMQTMVQVVKRIGAKVEIQHEEVHGDTAHAVFVYKKGNRTAQTTVKVVYEGDKLKKAEVKMTDEVRKVLHDG” showed a protease stability score of -0.024.

For “DRKLEEVFRKWLKAQKEGNPEVARKNADKDAKIVIGDTQIHGRDEMAEKVRHRKKHLQVDIKIKRMQIQGDKIKIKFEVVENHNGKPEKYKATAFARASDGNFKEMQVNKTG”, the protease stability score came to 0.12.

Sequence “DEEKRREFAKFAMNVVQTGDPREFSKMADPNAKFDIGDKVFHGREKAVKHWEEYSQRVDHIQIQDVKFQGNEIHILAQDRHNGRDRSVVWVVTVHNGRAKYVSVDDN” displayed a protease stability score of 0.027.

As to “DEEQVRKMLETILKMMVNGNLEEVKKVLKPNVDYQLGDEKLQGQQVAERADKYIKKVGVRAEIKRAKVEGDTAELDYEFTADGRTVRVTVQAHAKDGRLDQWRVEVSDTAKKIRQKG”, the protease stability score turned out to be 0.736.

Regarding “DETNERVARTMLEVRQHNNPDDLRKMLDPNVKVVIGDKEVHGREDYINKFEERVKHIRVDVKVDHIDSQGNRLDIDVTFTMNVNGQPVKDRMRFVIQITNGKIEEVDVSVPEEELKKQEK”, the protease stability score turned out to be 0.909.

“DEDKMKEVIEKVLRMLETGDPHEASKLADENAKIRYGDKTYHGRDQVHELLDRITKRVDHVEIKDFSVQGEQLVLHFVLNINGKNKEVVLVATVHNGRIKSLHVDDQ” had a protease stability score of 1.26.

The sequence “DDDAVRQVHTFWRILERGNSDRATEMLDENARVEVGDRSLHGREKIVTQQYRLYTQARIEVERYSAQDHGNKVHAFVLVVVHVNGTPHRFTVDVNFVFQNGRFKSIHLQVSEEQLRQEER” had a protease stability score of 0.604.

“DESEHAKRVADKFRTAAKNGDPDQFTQLADPNAKIDIGDKDVSGRERLSEVVNELNKRIDHLEVKVRSVTQRGNHLVVKADVDAEHNGQEIRRKVDIVLRNNNGRVNLEMIRYR” had a protease stability score of 1.03.

In turn, “DEEAEDLVKELWKAWKHNDPDTWVKQLPPDARISVGNKEVHGREQARHEFERQVERMQVRLKVDSVHNRGNKAHFHVTVDASVNGKPVTFTVEVVITFHNGKAKYIEMRMSEEQFDKFQG” showed a protease stability score of 1.41.

As to “DEKQLKHVQEWVETGDPDQFARNADPNAEIQIGNTTWQGREEIQKLAHRLKKQVDTQELKDIQVHGDHVLVNRVMEWDGHTFEFSMHIKVQNGRIKSVDVKVRDPSQQKELEDHLS”, the protease stability score was -0.087.

In turn, “DEEKDQKLATDLSDVIKTGDKEKMVKMADPNARIIVGDRVYHGREVILRWVRTLRERVDRIQIDSYDARDGKVRIIFQVRFDGRTTKIDLVVQYDNGHAKKIEVREK” gave a protease stability score of 0.075.

Turning to “DEESQARKFIKQYHDVLETGDENEARRLADENVKVHVGEFHYRGSDQYAHAVKRLRNKVDHIHMTLTEISVSNGEVNVVLKVVLNYNGTNDSFKMTMRADRVNGTLVLVEVKNG”, the protease stability score is 0.389.

“DDHALRLVEEFLRAMRTGDEDKLKELVDPNARVTVGDHVWHGMESAAREWKRLKDEMRIKIDLQHVDDHGNSANAKASLAFRVNGKPQQNHMKMEVIFENGRIQSIVLRFSNEVEHNIKR”: the protease stability score stood at 1.28.

The sequence “DDHLRQVMEELKKAEDTGNPDRYVELADEDVEVHVGDTTLKGRTQHREEIKTQKDQSRLSINIQHVDVDGDKVRVQFVFENDHNGKPSTDRQQFVVRAHNGRVKRIENEERR” registered a protease stability score of -0.114.

“DEEDEDWAEKVATTGNFDEAARDADQNATVKVGDKTWHGREEVTRAMDLLEKQADHVRVSRFKVENGEVNFHVVIEFNGNEIDVTANARFRNGRLTYFSIDARSEHESKSLQKLLE” yielded a protease stability score of 0.497.

The sequence “DTEDDHEFARKYVEVLESGDPKQWREMFDEDAKMRIGEKTFRGRDQIATWYERYRRQADHVEVKHVETRGEQFQFDFQVHVNGKHARYTLNIRVHNGKLVEVKFDPDQKKTMDK” returned a protease stability score of 1.75.

“DDTTRAKEWAEELNRIYRNGDPKELEKQMDKDVRLIIGEKHIHGRSQAMNWMRELMKKADHIELRIHDVKVQGENVTVVVVYRINVNGRDVQRRVIIVAEVHNGHLKIKEMHES” registered a protease stability score of 1.88.

With “DEDEATKVATNMQEILETGNPDEAAKLADKDVRVVVGDKDVHGSENLKDMMRELRERADHLRVVDMHSHGEKFVLLVIIEHNGRRHQVNIVMTIDNGRIKSLSITSG”, the protease stability score worked out at 1.87.

In the case of “DEEKLREMMKKWQKVVQEKNTDEAKKLYHPNGEWENGSERDQGVEKVVKAIKTAQEKGFEFQIREVEVKGDKATMIYDLRNGDKTVTFHVEMEVDGGRVKRVRAKVSEEAKKLLTKG”, the protease stability score turned out to be 0.511.

Sequence “DEEKATEQAKEAIKALHTGDPRTMVEMLDKDARLRVGDNEYKGRDKVRNAMEEFTKRADSVRVDSVSVHGDKAVIHFKVRYNGQTIEVVLSLSVTNGRIVKAELDYRDEDTLRRLQK” yielded a protease stability score of 1.11.

As for “DKDDFKEAEHILRTGDPDEWSKMVDPNARAEVGDEEIHGKEEFDRWMQKKKKRVDHEQVKSVDFHGDKWRVVLVFNVNGRQADVVMVMQVHNGRLVYQVVRFRDHQVKDVVRKRLS”, the protease stability score was determined as 0.336.

On to “DEEEQRKTAEDIAQVLRTNNPDTMNKLADKNAKASVGDKTYHGRKELSKWIEEQRRRVDHVDIKRFSVDGNEIIIIVILNHNGQNTRVVMVARVKNGRIQSLWRKSK”, for which the protease stability score is -0.176.

In turn, “DEKHAQHAAEIAEQGDPDEWEELADKDVKVDIGDQRVHGREQASSFWRKLREQADTIEYKSYRVDNGRVQLDFVVDINGHRLEFTLRFVVDNGRITEMEVQARDERQNEELKKIDS” yielded a protease stability score of 0.524.

“DHTKQAETVARQMLEQLRDGNPEELKNMFDENVEADIGDTRYHGRESMVEFWQTILTRVDRNRLHIVDVQVQGNKIIVRVRVSFDRNGRQKEEEYVIVVRVNNGHYTADVVSLT” had a protease stability score of 0.772.

Sequence “DEEDMKRVQDLIKAFQEGDPDKVVEQIDPNARIEVGDQHVSGRQHIRETIHNRVEEAEIHYESITLRVRGNTVEVRMVFVENKNGRPKRVHVKIEVQMHNGKVKEIREQEVS” gave a protease stability score of 0.969.

“DDEERAEQFFRDIVEAIRTNDEERLRHLFDENAHAQVGDKTLHGREQIVKEIVSMAQSADHVSFQLRDLSVDGETITFYFKVQYTRNGRQTSKDVIIVARQSGDKLSVKTEVDS” came in with a protease stability score of 1.4.

Turning to “DEDAVKLAQEVWKAMHTGDEDKFVKLVDPNARVKIGDKDIHGKDDIKKQLHNRNREIRVRLKHIEIDQNGDQARIHMRFQMTHDGQPRDQSATATMRAQGDKLKSISVTNHG”, the protease stability score is -0.206.

“DEDTLKHMAREFVKALQTGDEDRLSEMVDENVRIDYGDKTVSGRKKAQEYAHRVRKQVDHIEVREVEVHGNKVEIDAVLVFNGQRLTVTFRIIMRNGKVQHIQLEVTDPDKQRKAEQ” gave a protease stability score of 1.26.

Sequence “EEENQQIAEDVVDVLRTGDHEKFMHMADPNVKVVIGDKQYRGREDFSKIVKTWKDQMRLHIQIKDVKVEGDEVHVEADYLMKHNGKPVRDTITLVIRFDNGKIKEVQYEVDEDVLRKLES” came in with a protease stability score of 1.14.

Sequence “DETATEAAQRMMDNWRTNSPEDYAKLADKNVEVRVGDKTYTGRDELRSRLQRKREEQHIDLRTYHFRVNGDEVTVRARYIENHNGRPQHKVVRFVFRLHNGRVKEIERHDDS” yielded a protease stability score of 0.22.

With “EEEVEDQAKKYAKALHDNDPKTLSKLADKDAEFRYGDHQFHGREEVEKHWEKELKEIEVDWRVVDVKAHNGQVRIRFQAHRHHNGDPKNDNRKASARVTNGRIKKIEWVEDH”, the protease stability score is -0.059.

For the sequence “DEEVKTLVERLVEALNTGDPDSAMHLVDENAKFQYGDRELHGRENVHKFVEDMKREIRIDMEVKRLRVEPGRVKLTAEFSLSVNGQPDHQSVTMRATAHNGQLKDVQFRLPPEKLEKLKS”, the protease stability score was -0.199.

Sequence “DEEKAQRLMKTLMDYIKNGNADKAQQMLKEGGKVKFGDEEVEGPEEMKKYVKKFKDKGIETHYKEEKFEGNTATVHTEAKLGNAKVEFEAHYEAKGDKVVRAEVKYDEDQYEKFKKS” displayed a protease stability score of -0.286.

“DSRAVHLAKNFMSALKTGDHDRARDNLDKDARISIGDKVWHGMDEAVHDIKREKEEMRIEFRKVDAKDSNGKVRMDADVVFNHDGRPDKFRLDADIEVHNGRIHVLDVENSK” came in with a protease stability score of 0.264.

Turning to “DEDTNREQVKRFEEAQQENDPDKWMDNLDENARLDVGDTRVHGSKEIMKHFKRLNDKIDHWRVQSFEFHNGRMKLNAVARVNGKRLKMQFQANVHNGKFTELRMDPDAVRKITS”, the protease stability score was 0.413.

For the sequence “DEHEEAKKVADRMIEVEKTGDEDSLTENFDPNVRFKIGDRTYHGEKDMQQLLREIKERADHIDIDVKHVTAHNGRADIDRVRVIQVDGQRRKQRIRMDLTFHNGRLHLKQMKVD”, the protease stability score is 0.31.

On to “DREEVRQVDQWMKNQQRNNPDELVKLADPNVEFRIGDKTVHGMRRYADDVRRKREHIRLEFKHMKIEDQNGRVILRAKAQREHNGKPETFTMQITFEAHNGRIKKAVITTQK”, for which the protease stability score stood at 0.044.

For the sequence “DTHNFKKYMELLKALETGDERTARKMADPNAEFVIGDKEWHGMEEFAQTRVEQFKEQSIEIKILDYKDKNGQVHIRYRIRVNRNGKPDEKEVVVRIENHNGRIHHVEYRDTG”, the protease stability score worked out at 0.09.

“DEERAKQVADKVFKYAINGDEEKMQKQLDPNVEYKYADTEYEGEDAARAIVRLVKQVGMEVKTQRQEVKGNTMQADFRYHNGDKEVQTTARVEYEGDKVKKVEVKVTDEVKKEAHKG” had a protease stability score of -0.068.

As to “DEDKEDRVVKTFLTAVRTGDPHTARNMLDENARVHIGEKNFHGKERASEAIKEFRDQVDEVHIRTIKVRGDRFNIDMTLHFNGKNADLTVNVRVHNGKIQDVQFDPDQMQHLQG”, the protease stability score is 0.86.

Turning to “DKEILDLVNEFLKAQRDNDPDRVSELADPNVKVHYGDKQIRGREEVNKQVEKEQKEIQVDFRIKHVTVENGRADLNFRYHANVNGQPISFDARIEMQFHNGRLKRLVLRMPEEAVKTMDS”, the protease stability score worked out at 0.118.

The sequence “DDRDAERLVELWKTGDPDKFANHMRDDVRVQIGDKSVRGRDEAHKILERLRQQIDHWEIKDYEVHGERVIIHAVATVNGRHLNFVIVVQMHNGRIQSVQYKVTSEDDQHRIKKLLD” came in with a protease stability score of 0.326.

As for “DEEQVEHAMNRLVQALRSGDEKKLLDLAPEDVKMRIGDREFHGREDFEKAVKEFVDRVDHFQFEDVSIRGDDIFIHVWNQVNGRRHKQVITVKAHNGRMKHMVLDTP”, the protease stability score was found to be 0.983.

Regarding “DERDMTKVFDALLKNDEDTVKDQLDEDVQVTVGDKKVHGREQAQETWERLLQRADHINMKSFTTRGDRAVAIVVARVNGHKLEWEYRFKASNGKVEHARIDFRDDDEERKFENALR”, the protease stability score was determined as 0.024.

As for “DEDNEKELQREIVRVLKHNDWERFTQLIDEDVRLEYGDQRYHGREQVSKHFTDLAQEVDSVEVTSVKAHNGKINITAILNHNGTNHRYNIRFEFRNGRLKVVRYDHT”, the protease stability score is 1.85.

Regarding “DHELVEQLHRFWTAVDENDPDKLKENADPNAHFVIGDKTYRGREDFARTIERELDTMEMRFDTMTVTIHNGRLDAKFRYVVRHNGNPQQHKVDAKAEMSNGKIQRLNMQKRP”, the protease stability score was -0.197.

For the sequence “DHRAEEAFRRWEEALKTGDPDQAKEQVDPNARFEYGDESIRGMDNVQKWLRTQMEKQRIDVKVKDVKTRPGHVEISAHVVWEHNGTPNSATFVQQNTATGDDVKHVKVQEHK”, the protease stability score was -0.27.

The record behind these values is the NTF2 design screens of Basanta et al. (2020).
